# From ChEMBL document CHEMBL5226320, “A versatile toolbox for investigating biological processes based on quinone methide chemistry: From self-immolative linkers to self-immobilizing agents” (Bioorg Med Chem, 2021)
# B1: Alkaline phosphatase, germ cell type (Homo sapiens), P10696 (protein)
# chain: MQGPWVLLLLGLRLQLSLGIIPVEEENPDFWNRQAAEALGAAKKLQPAQTAAKNLIIFLGDGMGVSTVTAARILKGQKKDKLGPETFLAMDRFPYVALSKTYSVDKHVPDSGATATAYLCGVKGNFQTIGLSAAARFNQCNTTRGNEVISVMNRAKKAGKSVGVVTTTRVQHASPAGAYAHTVNRNWYSDADVPASARQEGCQDIATQLISNMDIDVILGGGRKYMFPMGTPDPEYPDDYSQGGTRLDGKNLVQEWLAKHQGARYVWNRTELLQASLDPSVTHLMGLFEPGDMKYEIHRDSTLDPSLMEMTEAALLLLSRNPRGFFLFVEGGRIDHGHHESRAYRALTETIMFDDAIERAGQLTSEEDTLSLVTADHSHVFSFGGYPLRGSSIFGLAPGKARDRKAYTVLLYGNGPGYVLKDGARPDVTESESGSPEYRQQSAVPLDGETHAGEDVAVFARGPQAHLVHGVQEQTFIAHVMAFAACLEPYTACDLAPRAGTTDAAHPGPSVVPALLPLLAGTLLLLGTATAP
# What was measured:
# Details in all cases: Homo sapiens
# [1] = substrate: O=c1ccc2nc3ccc(OP(=O)(O)O)cc3oc-2c1; experiment: (§1) Binding affinity to ALP (unknown origin)
# [2] = substrate: O=c1ccc2nc3ccc(OCc4ccc(OP(=O)(O)O)cc4)cc3oc-2c1; experiment: as §1
# [3] = substrate: O=c1ccc2nc3ccc(OP(=O)(O)O)cc3oc-2c1; experiment: (§2) Binding affinity to ALP (unknown origin) assessed as catalytic constant
# [4] = substrate: O=c1ccc2nc3ccc(OCc4ccc(OP(=O)(O)O)cc4)cc3oc-2c1; experiment: as §2
# [5] = substrate: O=c1ccc2nc3ccc(OP(=O)(O)O)cc3oc-2c1; experiment: (§3) Binding affinity to ALP (unknown origin) assessed as Kcat/Km
# [6] = substrate: O=c1ccc2nc3ccc(OCc4ccc(OP(=O)(O)O)cc4)cc3oc-2c1; experiment: as §3
protein,measurement,setting,value
B1,Km,[1],24.6 µM
same,Km,[2],15.3 µM
same,kcat,[3],0.16 s⁻¹
same,kcat,[4],0.26 s⁻¹
same,kcat/Km,[5],6.58 10^3/M/s
same,kcat/Km,[6],1.7 10^4/M/s
